In paper PMC3121535 (Journal of molecular biology, 2010):
Numbering of substitutions follows the chain as printed. In names and notes the source's numbering stands. Values belong to the molecule of their own block, whether it stands above or below them. Where no end group is shown, it is not given here. [ ]: non-standard residue; d: D form. pS = N[C@@H](COP(=O)(O)O)C(=O)O

How the values were obtained:
[1] = biological target: SERCA (sarcoplasmic reticulum calcium ATPase); assay: 2D co-crystal frequency, negative-stain EM; conditions: sites S16
cryo-EM structure = biological target: the molecule itself; assay: cryo-EM structure
SDS-PAGE = biological target: the molecule itself; assay: SDS-PAGE

other: crystals per grid square ([1]; reference: non-phosphorylated K27A PLB): weaker; reference 5 ± 1 (n = 6)
Molecule: phospholamban (PLB) (from UniProt P26678) PKA-phosphorylated K27A PLB

other: crystals per grid square ([1]; reference: non-phosphorylated wild-type PLB): weaker; reference 3.1 ±0.5 (n = 7)
Molecule: phospholamban (PLB) (from UniProt P26678) PKA-phosphorylated wild-type PLB

B1: wild-type phospholamban (PLB) (natural protein, human, UniProt P26678 1-52, looked up)
chain: MEKVQYLTRSAIRRASTIEMPQQARQKLQNLFINFCLILICLLLICIIVMLL
stoichiometry N (cryo-EM structure): 5

B2: phospholamban gain-of-function mutant Lys27-to-Ala (K27A) (natural protein, human, UniProt P26678 1-52, looked up)
chain: B1 chain with K27A
stoichiometry N (cryo-EM structure): 5

B3: phosphorylated K27A phospholamban (Ser16, by PKA) (natural protein, human, UniProt P26678 1-52, looked up)
chain: MEKVQYLTRSAIRRA[pS]TIEMPQQARQALQNLFINFCLILICLLLICIIVMLL
modifications: cysteine pairing not given here
stoichiometry N (SDS-PAGE): 5

B4: phosphorylated wild-type phospholamban (Ser16, by PKA) (natural protein, human, UniProt P26678 1-52, looked up)
chain: MEKVQYLTRSAIRRA[pS]TIEMPQQARQKLQNLFINFCLILICLLLICIIVMLL
modifications: cysteine pairing not given here
stoichiometry N (cryo-EM structure): 5
